In PMC10544979:

Experiments:
[1] = target: human TLR4 (hTLR4) on HEK-Blue-hTLR4 reporter cells (human) (UniProt O00206)
[2] = target: mouse TLR4 (mTLR4) on HEK-Blue-mTLR4 reporter cells (mouse) (UniProt Q9QUK6); conditions: for log (EC50) of NF-kB-driven SEAP secretion by HEK-Blue-mTLR4 reporter cells, 48 h, dose-response up to 2540 nM: scale: log
UniProt Q9QUK6, sequence (Q9QUK6 26-835): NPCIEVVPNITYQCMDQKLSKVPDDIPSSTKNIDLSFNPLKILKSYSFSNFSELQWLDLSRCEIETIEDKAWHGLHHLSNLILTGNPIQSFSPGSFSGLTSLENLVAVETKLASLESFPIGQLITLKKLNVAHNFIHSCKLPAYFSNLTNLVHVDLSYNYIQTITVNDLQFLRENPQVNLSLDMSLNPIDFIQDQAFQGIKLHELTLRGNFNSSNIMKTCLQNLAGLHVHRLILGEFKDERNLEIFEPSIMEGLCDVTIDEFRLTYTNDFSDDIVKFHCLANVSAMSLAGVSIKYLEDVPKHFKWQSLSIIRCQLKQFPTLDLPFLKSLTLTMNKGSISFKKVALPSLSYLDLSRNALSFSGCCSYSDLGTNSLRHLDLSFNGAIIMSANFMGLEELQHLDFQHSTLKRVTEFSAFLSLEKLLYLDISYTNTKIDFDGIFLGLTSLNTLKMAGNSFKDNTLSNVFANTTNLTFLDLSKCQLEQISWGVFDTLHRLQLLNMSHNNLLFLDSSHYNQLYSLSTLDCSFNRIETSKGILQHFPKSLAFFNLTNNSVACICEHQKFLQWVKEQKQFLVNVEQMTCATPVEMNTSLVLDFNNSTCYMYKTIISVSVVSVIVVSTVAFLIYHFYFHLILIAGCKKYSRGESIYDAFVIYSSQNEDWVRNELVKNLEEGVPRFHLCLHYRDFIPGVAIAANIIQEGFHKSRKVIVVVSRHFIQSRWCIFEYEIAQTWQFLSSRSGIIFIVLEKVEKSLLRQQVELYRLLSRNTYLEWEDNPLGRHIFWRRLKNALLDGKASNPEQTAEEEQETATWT

UniProt O00206, sequence (O00206 24-839): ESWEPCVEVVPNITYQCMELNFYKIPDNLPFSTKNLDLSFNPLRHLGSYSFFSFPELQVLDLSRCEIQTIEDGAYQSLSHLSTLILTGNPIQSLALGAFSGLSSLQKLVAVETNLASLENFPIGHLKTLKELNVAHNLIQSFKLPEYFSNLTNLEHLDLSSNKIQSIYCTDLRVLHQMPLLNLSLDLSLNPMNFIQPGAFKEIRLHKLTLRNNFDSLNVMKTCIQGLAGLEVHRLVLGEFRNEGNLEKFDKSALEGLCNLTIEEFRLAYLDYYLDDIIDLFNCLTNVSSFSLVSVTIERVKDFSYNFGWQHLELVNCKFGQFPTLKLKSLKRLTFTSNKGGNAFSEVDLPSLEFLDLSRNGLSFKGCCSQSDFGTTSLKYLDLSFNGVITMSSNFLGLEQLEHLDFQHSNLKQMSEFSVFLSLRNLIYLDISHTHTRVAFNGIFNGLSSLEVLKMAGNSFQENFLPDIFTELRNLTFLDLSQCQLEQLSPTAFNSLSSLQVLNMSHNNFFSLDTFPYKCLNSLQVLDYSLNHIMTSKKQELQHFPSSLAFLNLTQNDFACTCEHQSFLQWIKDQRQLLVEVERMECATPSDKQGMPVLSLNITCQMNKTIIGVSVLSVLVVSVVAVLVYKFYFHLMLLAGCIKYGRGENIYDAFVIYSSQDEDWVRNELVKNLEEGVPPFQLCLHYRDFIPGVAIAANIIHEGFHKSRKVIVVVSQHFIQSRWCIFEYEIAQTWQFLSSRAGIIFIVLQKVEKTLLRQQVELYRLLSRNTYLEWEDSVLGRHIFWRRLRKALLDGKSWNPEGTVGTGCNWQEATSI

| Substance | activation of HEK-Blue-hTLR4 reporter cells (SEAP), dose-response up to 2,540 nM, 48 h, LPS = 100% [1] | maximum activation of HEK-Blue-mTLR4 reporter cells (SEAP), dose-response up to 2540 nM, 48 h, LPS plateau = 100% [2] | log (EC50) of NF-kB-driven SEAP secretion by HEK-Blue-mTLR4 reporter cells, 48 h, dose-response up to 2540 nM [2] |
| --- | --- | --- | --- |
| Fissurella latimarginata hemocyanin (FLH) (natural protein) | 25 % of LPS | 80 % of LPS | 0.1 |
| recombinant surface immunogenic protein (rSIP) from Streptococcus agalactiae (natural protein) | 90 % of LPS | 80 % of LPS | -1 |
